Measured values taken from US20240016892A1 (SHATTUCK LABS, published 2024).

Columns and labels:
[1] = molecular target: T1, recombinant human Nectin-4 (human, UniProt Q96NY8 32-349); assay: MSD: capture hNectin-4; detection anti-Fc-HRP
T1 sequence (looked up): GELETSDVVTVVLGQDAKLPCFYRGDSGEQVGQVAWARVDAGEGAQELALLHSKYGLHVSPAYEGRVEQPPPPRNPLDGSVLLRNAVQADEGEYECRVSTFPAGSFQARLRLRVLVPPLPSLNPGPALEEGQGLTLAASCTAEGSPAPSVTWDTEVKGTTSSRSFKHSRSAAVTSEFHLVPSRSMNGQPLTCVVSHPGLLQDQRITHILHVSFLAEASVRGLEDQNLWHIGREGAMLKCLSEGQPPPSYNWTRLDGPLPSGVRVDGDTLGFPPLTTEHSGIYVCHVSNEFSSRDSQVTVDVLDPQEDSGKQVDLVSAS

[2] = molecular target: T2, recombinant human LTβR (human, UniProt P36941 31-227, limits assumed); assay: BLI (Octet), affinity for recombinant human LTβR compared with Fc-LIGHT
T2 construct: Bought from Acro Biosystems or Sino Biological; construct limits and tag not specified; also called rhLTβR; TNFRSF3
Description: Bio-Layer interferometry-based affinity testing was used to determine the on-rates (Ka), off-rates (Kd) and binding affinities (KD) of the TIGIT-Fc-LIGHT chimeric protein to intended binding targets, using histidine- or biotin-tagged versions of the human recombinant proteins (PVR, HVEM, LTβR, PVRL2, PVRL3, and Nectin-4; purchased from Acro Biosystems or Sino Biological). Commercially available or internally produced single-sided fusion protein controls (TIGIT-Fc and Fc-LIGHT) were also tested in parallel. Targets were immobilized at a concentration of 3 μg/mL in Kinetics buffer (PBS/0.1% Tween-20/1% BSA; pH7.0) to anti-pentaHis or streptavidin coated biosensors. Direct binding of fusion proteins to recombinant target proteins was performed on an Octet-Red96 BLI instrument, using association and dissociation times of 90 and 120 seconds, respectively.
Protein-protein interactions (PPI) between the fusion proteins and their cognate binding partners were characterized using both recombinant protein and cell-based methods. First, bio-layer interferometry-based affinity testing was used to assess the kinetics of receptor/ligand binding.

[3] = molecular target: T3, recombinant human PVR (human, UniProt P15151 21-343); assay: MSD sandwich 'Dual - Potency #1': capture LTβR-Fc, TIGIT-Fc-LIGHT titrated, detection PVR-Biotin (same curve as the capture row)
T3 construct: The tagged PVR of the BLI assay and the biotinylated PVR used as detector in MSD are treated as one molecule; also called rhPVR; CD155
T3 sequence (looked up): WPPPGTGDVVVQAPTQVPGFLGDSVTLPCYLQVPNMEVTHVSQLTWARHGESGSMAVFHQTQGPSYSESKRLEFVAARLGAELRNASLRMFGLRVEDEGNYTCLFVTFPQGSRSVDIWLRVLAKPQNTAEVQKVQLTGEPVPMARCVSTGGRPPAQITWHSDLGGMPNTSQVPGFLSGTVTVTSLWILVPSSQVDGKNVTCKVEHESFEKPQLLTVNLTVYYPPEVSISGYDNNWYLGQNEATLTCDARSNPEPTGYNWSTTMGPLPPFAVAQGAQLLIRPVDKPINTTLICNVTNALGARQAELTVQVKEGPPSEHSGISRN
Description: For the TIGIT-Fc-LIGHT chimeric protein; MSD Multi-Array plates (MSD) were pre-coated overnight with recombinant human LTβR-Fc or HVEM-Fc (Acro Biosystems) at 4° C. The plates were blocked with Diluent 100 (MSD) for at least one hour at room temperature on a shaker. After washing, analysis samples were added and then serially diluted 3-fold and loaded in duplicate wells to generate 8-10 test concentrations. The bound the TIGIT-Fc-LIGHT chimeric protein was detected with recombinant biotinylated human PVR (Acro Biosystems). Streptavidin conjugated to ruthenium (MSD), was added to bind the biotin labeled detector. MSD Gold Reading buffer (MSD) was added to the plate, and upon application of an electrical charge, an electrochemiluminescent signal was produced and detected with the MSD MESO QuickPlex SQ 120MM, Model 1300, to generate relative light units (RLU). Analogous assays were performed using mTIGIT-Fc-LIGHT and murine recombinant PVR, HVEM, and […] (Acro Biosystems).
The binding of the TIGIT-Fc-LIGHT chimeric protein to its receptors was characterized by Meso Scale Discovery (MSD) ELISA assays. […] Binding of the chimeric protein to LTβR-Fc was detected using an PVR-Biotin and using an electrochemiluminescence (ECL) readout. […] Binding of the chimeric protein to HVEM-Fc was detected using an PVR-Biotin and using an electrochemiluminescence (ECL) readout. […]

T2 sequence (P36941 31-227 limits assumed): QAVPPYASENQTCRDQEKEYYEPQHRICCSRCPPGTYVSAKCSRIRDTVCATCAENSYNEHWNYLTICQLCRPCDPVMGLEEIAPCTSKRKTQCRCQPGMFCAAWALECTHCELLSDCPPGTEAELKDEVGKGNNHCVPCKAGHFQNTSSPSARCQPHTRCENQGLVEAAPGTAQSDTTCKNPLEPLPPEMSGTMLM

B1: human TIGIT-Fc-LIGHT chimeric protein (Fc fusion)
chain: MMTGTIETTGNISAEKGGSIILQCHLSSTTAQVTQVNWEQQDQLLAICNADLGWHISPSFKDRVAPGPGLGLTLQSLTVNDTGEYFCIYHTYPDGTYTGRIFLEVLESSVAEHGARFQIPSKYGPPCPPCPAPEFLGGPSVFLFPPKPKDQLMISRTPEVTCVVVDVSQEDPEVQFNWYVDGVEVHNAKTKPREEQFNSTYRVVSVLTVLHQDWLSGKEYKCKVSSKGLPSSIEKTISNATGQPREPQVYTLPPSQEEMTKNQVSLTCLVKGFYPSDIAVEWESNGQPENNYKTTPPVLDSDGSFFLYSRLTVDKSRWQEGNVFSCSVLHEALHNHYTQKSLSLSLGKIEGRMDLQLHWRLGEMVTRLPDGPAGSWEQLIQERRSHEVNPAAHLTGANSSLTGSGGPLLWETQLGLAFLRGLSYHDGALVVTKAGYYYIYSKVQLGGVGCPLGLASTITHGLYKRTPRYPEELELLVSQQSPCGRATSSSRVWWDSSFLGGVVHLEAGEKVVVRVLDERLVRLRDGTRSYFGAFMV
notes: Said to exist as a hexamer (dimer of trimers); Glycosylated; also called hTIGIT-Fc-LIGHT; TIGIT-Fc(IgG4)-LIGHT
binding result [1]: binds | fold affinity relative to Fc-LIGHT control [2]: ~8 fold | EC50 [3]: 28.3 nM
